Legend:
[1] = target: dCas9 (SpCas9 D10A, H840A) ligated to SH3 domain via 2xGS linker
[2] = target: dCas9 (SpCas9 D10A, H840A) with a plurality of binding domains (SH3 domains)

B1: human AID deaminase added with SH3 ligand sequence (protein)
chain: MDSLLMNRRKFLYQFKNVRWAKGRRETYLCYVVKRRDSATSFSLDFGYLRNKNGCHVELLFLRYISDWDLDPGRCYRVTWFTSWSPCYDCARHVADFLRGNPYLSLRIFTARLYFCEDRKAEPEGLRRLHRAGVQIAIMTFKDYFYCWNTFVENHERTFKAWEGLHENSVRLSRQLRRILLPLYEVDDLRDAFRTLGLLDPPPALPPKRRR
- introduction of mutation into the targeted site of the CAN1 gene in budding yeast [1]: even when dCas9 and deaminase were linked via the binding domain, mutation was efficiently introduced into the targeted site of the CAN1 gene
- mutation introduction efficiency at the CAN1 gene in budding yeast [2]: The mutation introduction efficiency was remarkably improved by introducing a plurality of binding domains into dCas9
